In assay [1] the target is T1, SARS-CoV-2 spike receptor-binding domain (RBD) (SARS-CoV-2, UniProt P0DTC2). The assay is described as follows: BLI. Particulars: both partners purified.
Assay [2] concerns the target T1, SARS-CoV-2 spike receptor-binding …. The assay is described as follows: ELISA. Particulars: both partners purified.

B1: CTC-445.2t (designed binder)
chain: SAEIDLGKGDFREIRASEDAREAAEALAEAARAMKEALEIIREIAEKLRDSSRASEAAKRIAKAIRKAADAIAEAAKIAARAAKDGDAARNAENAARKAKEFAEEQAKLADMYAELAKNGDKSSVLEQLKTFADKAFHEMEDRFYQAALAVFEAAEAAAGGGGSGGSGSGGSGGGSSAEIDLGKGDFREIRASEDAREAAEALAEAARAMKEALEIIREIAEKLRDSSRASEAAKRIAKAIRKAADAIAEAAKIAARAAKDGDAARNAENAARKAKEFAEEQAKLADMYAELAKNGDKSSVLEQLKTFADKAFHEMEDRFYQAALAVFEAAEAAAGGGGSGGSGSGGSGGGSSAEIDLGKGDFREIRASEDAREAAEALAEAARAMKEALEIIREIAEKLRDSSRASEAAKRIAKAIRKAADAIAEAAKIAARAAKDGDAARNAENAARKAKEFAEEQAKLADMYAELAKNGDKSSVLEQLKTFADKAFHEMEDRFYQAALAVFEAAEAAAG
B1 returned a Kd in assay [1] of around 0.27 nM. Further, the IC50 in assay [2] is around 0.01 nM.
